For one data set the following is noted: phosphorylation at T188.
As for “Erk2: T188D (recombinant; dual TEY phosphorylation by MEK1EE in vitro)”, the other entry is “decreases, 2.2% dually phosphorylated (Erk2WT 12.5%)”. “Erk2: T188E, T188D (recombinant protein, in vitro kinase assay)”: the enzymatic_activity result is recorded as “abolishes”. Same read-out and setting: next, Erk2: T188S: “increases”. Turning to “Erk2: T188A (HEK293 + EGF; TEY phosphorylation)”, the other entry was “increases”. As to “Erk2: T188A (recombinant; dual TEY phosphorylation by MEK1EE in vitro)”, the other result is “decreases, 2.2% doubly phosphorylated (Erk2WT 12.5%)”. Still for that read-out and setting: next, “Erk2: T188A (recombinant; spontaneous Tyr185 autophosphorylation)”: “increases, 84% monophosphorylated on Tyr185”.

With “Erk2: T188A (recombinant protein, in vitro kinase assay)”, the enzymatic_activity entry is listed as “abolishes”.

As to “Erk2: R65H+T188E, R65H+T188D (recombinant; dual TEY autophosphorylation)”, the other result is recorded as “decreases”. Regarding “Erk2: T188E, T188D (HEK293 + EGF; TEY phosphorylation)”, the other entry is listed as “increases”. The same measure, in the same setting: the result for “Erk2: R65H+T188A vs R65H (HEK293, no EGF; TEY phosphorylation)” reads “increases”. With Erk2: T188G, the enzymatic_activity result is reported as “decreases, to about 6%”. With “Erk2: T188A (HEK293, no EGF; TEY phosphorylation)”, the other result is “increases, 2–6 fold”. Take Erk2: T188N: the enzymatic_activity entry is reported as “abolishes”. The same measure, in the same setting: next, Erk2: T188C: “no change”.

The data set is the same for the next values; noted with them: phosphorylation at T207.
Consider “Erk1: T207A (HEK293 + EGF; TEY phosphorylation)”, for which the other result is “increases”. The same measure, in the same setting: the result for “Erk1: R84H+T207A vs R84H (HEK293, no EGF; TEY phosphorylation)” reads “increases”.

Regarding “Erk1: T207A (recombinant protein, in vitro kinase assay)”, the enzymatic_activity result is given as “abolishes”. As to “Erk1: T207A (HEK293, no EGF; TEY phosphorylation)”, the other entry is recorded as “increases, 2–6 fold”. Still for that read-out and setting: next, “Erk1: T207E, T207D (HEK293 + EGF; TEY phosphorylation)”: “increases”. As for “Erk1: T207E, T207D (recombinant protein, in vitro kinase assay)”, the enzymatic_activity entry is recorded as “abolishes”.
